Test results taken from PMC7160140, “Allosteric regulation accompanied by oligomeric state changes of Trypanosoma brucei GMP reductase through cystathionine-β-synthase domain” (Nature Communications, 2020).
Where two headings read alike, the source gives them in different places.

Columns and labels:
[1] = target: T1, TbGMPR (guanosine 5′-monophosphate reductase) (Trypanosoma brucei, UniProt Q57ZS7, W115R); test: tryptophan fluorescence quenching; type: binding
T1 construct: gene Tb05.1P6.110; full-length, C-terminal histidine-tag

[2] = target: T2, TbGMPR (guanosine 5′-monophosphate reductase) (Trypanosoma brucei, UniProt Q57ZS7); test: biochemical; set-up: gene Tb05.1P6.110
T2 sequence (Q57ZS7 1-491): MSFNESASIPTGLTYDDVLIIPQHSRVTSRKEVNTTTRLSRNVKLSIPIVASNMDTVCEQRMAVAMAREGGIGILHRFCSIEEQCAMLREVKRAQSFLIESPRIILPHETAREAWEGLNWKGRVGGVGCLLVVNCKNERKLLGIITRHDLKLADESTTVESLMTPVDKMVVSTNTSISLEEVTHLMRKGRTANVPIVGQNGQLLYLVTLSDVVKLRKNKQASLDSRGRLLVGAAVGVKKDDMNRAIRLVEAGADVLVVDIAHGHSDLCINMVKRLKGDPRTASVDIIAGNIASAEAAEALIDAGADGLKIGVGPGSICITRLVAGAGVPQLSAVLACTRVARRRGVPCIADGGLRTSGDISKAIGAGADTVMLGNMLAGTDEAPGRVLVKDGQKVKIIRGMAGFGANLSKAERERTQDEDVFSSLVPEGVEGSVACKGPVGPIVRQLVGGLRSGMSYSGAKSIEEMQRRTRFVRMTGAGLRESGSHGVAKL

[3] = target: T1, TbGMPR (guanosine 5′-monophosphate reductase); test: tryptophan fluorescence quenching (no Kd obtained); type: binding
[4] = target: T2, TbGMPR (guanosine 5′-monophosphate reductase); test: co-crystal structure at […] Å; activation of purified enzyme (EC50); type: biochemical; set-up: gene Tb05.1P6.110; wild-type, C-terminal histidine-tag
[5] = target: TbGMPR C318A (inactive mutant of Trypanosoma brucei GMP reductase) (Trypanosoma brucei (ILTat 1.4)); test: crystal structure; TbGMPR C318A without ligand (C318A apo), 2.80 Å; sitting drop, 4 °C; oligomer from crystal packing by PISA
[6] = target: TbGMPR C318A (inactive mutant of Trypanosoma brucei GMP reductase) (Trypanosoma brucei (ILTat 1.4)); test: crystal structure; TbGMPR C318A co-crystallised with up to 3 mM GMP (C318A/GMP), 1.90 Å; 4 °C
[7] = target: TbGMPR∆CBS (Trypanosoma brucei GMP reductase lacking the CBS domain) (Trypanosoma brucei (ILTat 1.4)); test: SEC-SAXS
[8] = target: Trypanosoma brucei guanosine 5'-monophosphate reductase, wild type (Trypanosoma brucei (ILTat 1.4)); test: SEC-SAXS; with 10 mM ATP; 4 or 12 mg/mL protein in 50 mM Tris-HCl pH 7.8, 0.5 M KCl, 3 mM EDTA, 1 mM DTT; 20 °C; fractions fitted by OLIGOMER; octamer to tetramers
[9] = target: Trypanosoma brucei guanosine 5'-monophosphate reductase, wild type (Trypanosoma brucei (ILTat 1.4)); test: SEC-SAXS; no ligand; 4 or 12 mg/mL protein in 50 mM Tris-HCl pH 7.8, 0.5 M KCl, 3 mM EDTA, 1 mM DTT; Shodex KW403-4F; 20 °C; mass from volume of correlation, fractions of tetramer and octamers fitted by OLIGOMER
[10] = target: Trypanosoma brucei guanosine 5'-monophosphate reductase, wild type (Trypanosoma brucei (ILTat 1.4)); test: SEC-SAXS; with 10 mM GTP; 4 or 12 mg/mL protein in 50 mM Tris-HCl pH 7.8, 0.5 M KCl, 3 mM EDTA, 1 mM DTT; 20 °C; fractions fitted by OLIGOMER
[11] = target: Trypanosoma brucei guanosine 5'-monophosphate reductase, wild type (Trypanosoma brucei (ILTat 1.4)); test: crystal structure; wild-type TbGMPR co-crystallised with up to 1 mM GTP (TbGMPR/GTP), 2.50 Å; 20 °C
[12] = target: Trypanosoma brucei guanosine 5'-monophosphate reductase, wild type (Trypanosoma brucei (ILTat 1.4)); test: SEC-SAXS; with 10 mM GMP; 4 or 12 mg/mL protein in 50 mM Tris-HCl pH 7.8, 0.5 M KCl, 3 mM EDTA, 1 mM DTT; 20 °C; fractions fitted by OLIGOMER
purified protein = substrate: Nc1nc2c(ncn2[C@@H]2O[C@H](COP(=O)(O)O)[C@@H](O)[C@H]2O)c(=O)[nH]1; test: purified protein; type: biochemical, Trypanosoma brucei; conditions: NADPH active site; positive cooperativity via CBS domain

Nc1ncnc2c1ncn2[C@@H]1O[C@H](COP(=O)(O)OP(=O)(O)OP(=O)(O)O)[C@@H](O)[C@H]1O [ATP] showed a Kd [1] of 194 ± 45 µM and an EC50 [2] of 160 µM.

In the case of Nc1nc2c(ncn2[C@@H]2O[C@H](COP(=O)(O)O)[C@@H](O)[C@H]2O)c(=O)[nH]1 [GMP], the “tryptophan fluorescence quenching (no Kd obtained)” value [3] is reported as “blue-shifting of the emission spectra of the protein with either GTP or GMP, but not with ATP”.

In the case of Nc1nc2c(ncn2[C@@H]2O[C@H](COP(=O)(O)OP(=O)(O)OP(=O)(O)O)[C@@H](O)[C@H]2O)c(=O)[nH]1 [GTP], the Kd ([1]; read-out: Kd) is reported as 6.75 ± 0.58 µM and the EC50 [4] is reported as 4.8 µM.

Work on “TbGMPR C318A (inactive mutant of Trypanosoma brucei GMP reductase) (enzyme)” yielded a stoichiometry N [5] of 8 and a stoichiometry N [6] of 8.

“TbGMPR∆CBS (Trypanosoma brucei GMP reductase lacking the CBS domain) (enzyme)” gave a stoichiometry N [7] of 4.

“Trypanosoma brucei guanosine 5'-monophosphate reductase, wild type (enzyme)” was tested, and the Octamer, relaxed (%) [8] was 28%, the Octamer, twisted (%) [8] was 11.2% and the Tetramer (%) [8] was 60.8%. The Octamer, relaxed (%) [9] was 53.2%, the Octamer, twisted (%) [9] was 46.8% and the Tetramer (%) [9] was 0%. For the same molecule, the stoichiometry N [9] was 8, the Octamer, relaxed (%) [10] was 0% and the Octamer, twisted (%) [10] was 100%. For the same molecule, the Tetramer (%) [10] was 0%, the stoichiometry N [11] was 8 and the Octamer, relaxed (%) [12] was 0%. It also gave an Octamer, twisted (%) [12] of 97.8% and a Tetramer (%) [12] of 2.2%.

B1: TbGMPR (guanosine 5′-monophosphate reductase) (Trypanosoma brucei brucei TREU927) (protein)
chain: MSFNESASIPTGLTYDDVLIIPQHSRVTSRKEVNTTTRLSRNVKLSIPIVASNMDTVCEQRMAVAMAREGGIGILHRFCSIEEQCAMLREVKRAQSFLIESPRIILPHETAREAWEGLNWKGRVGGVGCLLVVNCKNERKLLGIITRHDLKLADESTTVESLMTPVDKMVVSTNTSISLEEVTHLMRKGRTANVPIVGQNGQLLYLVTLSDVVKLRKNKQASLDSRGRLLVGAAVGVKKDDMNRAIRLVEAGADVLVVDIAHGHSDLCINMVKRLKGDPRTASVDIIAGNIASAEAAEALIDAGADGLKIGVGPGSICITRLVAGAGVPQLSAVLACTRVARRRGVPCIADGGLRTSGDISKAIGAGADTVMLGNMLAGTDEAPGRVLVKDGQKVKIIRGMAGFGANLSKAERERTQDEDVFSSLVPEGVEGSVACKGPVGPIVRQLVGGLRSGMSYSGAKSIEEMQRRTRFVRMTGAGLRESGSHGVAKL
notes: wild-type, C-terminal histidine-tag
B1 showed a K0.5 (purified protein) of 184 ± 3 µM, a kcat (purified protein) of 0.2783 ± 0.0025 s⁻¹ and a kcat/Km (purified protein) of 1520 M⁻¹ s⁻¹.
